Results as given in the DeepSol protein solubility set.

Assay: soluble on expression in E. coli; label from the status in PepcDB or PDB records

| Sequence | soluble on expression in E. coli |
| --- | --- |
| MGSDKIHHHHHHMANDWLELRQHADTGIETIKAHFEGHAYDPHWHDSYLVGLTLSGTQQFHCRRERHRSRPGDAFLLEPGEIHDGDAPVDGGFTYLTFYLDEQWLTNALHGLYESTPGSYSLHFAQTLTREPQLVRSISDSFTTLHNDEMKIVQQSSMDKLLSQITAHCHWRKRLPSQLQSTAVAHRARDYLYAHMGENIGLSDLARETGTDRFTLTRCFKREFHLAPHAWFIQLRLAKARQLLAYGDQPADVAAALGFSDQSHLGRWFQRAYRISPAHYRRLCTNLPDVSRR | not soluble |
| FCLTLRRRYTMGHHHHHHHHHHSSGHIEGRHMKLEQTLTLSPNLIGFNSNEGEKLLLTSRSREDFFPLSMQFVTQVNQAYCGVASIIMVLNSLGINAPETAQYSPYRVFTQDNFFSNEKTKAVIAPEVVARQGMTLDELGRLIASYGVKVKVNHASDTNIEDFRKQVAENLKQDGNFVIVNYLRKEIGQERGGHISPLAAYNEQTDRFLIMDVSRYKYPPVWVKTTDLWKAMNTVDSVSQKTRGFVFVSKTQDD | soluble |
| MSQLQEMMTVVSQREVAYNIFEMVLKGTLVDEMDLPGQFLHLAVPNGAMLLRRPISISSWDKRAKTCTILYRIGDETTGTYKLSKLESGAKVDVMGPLGNGFPVAEVTSTDKILIIGGGIGVPPLYELAKQLEKTGCQMTILLGFASENVKILENEFSNLKNVTLKIATDDGSYGTKGHVGMLMNEIDFEVDALYTCGAPAMLKAVAKKYDQLERLYISMESRMACGIGACYACVEHDKEDESHALKVCEDGPVFLGKQLSL | soluble |
| MQDLSGFTVPKGFRGANALKVQLWWAVQATLFAGSPQILYRWRAFLLRLFGAKIGKNVVIRPSVKITYPWKLTVGDYAWVGDDAVLYTLGEINIGAHAVISQKGYLCTGSHDYTSAHFDINAAPIVIGEKCWLATDVFVAPGVTIGHGTVVGARSSVFKSLPANAICRGNPAVVTRQRVQKVTP | not soluble |
| MGSDKIHHHHHHMAKVAHKKLLLSELQPGMRVKLPLSWTNHPFLFNRVDINSAAQIEMIRGLGVPFVYLISGSSDDAEAVDEEEEIEEIDEMPPERDLKADTRKSMRLSQKRFLESVNQCRNVFGKIVSDPEGAYRLSAALVEDLLSHLQEVQKPFLTLVGMDEKDVSVTQHGVSVAVLAMMIGHALDLPARELRDIALGSLFHDIGKLKVPDVIRRKRSALTPHEANYLQMHPNFGYDMLNRSGLFPKEVLNIVLHHHEFVDGSGFPDGLTGHKIPMVTQIVSLANDYDQQLSGQQATSPQVALGYLFKNRASKHSESLISVLVKILGIYPPGTIVKLSDDNVAKVIMTTKEVSQPQVWACKEDGSEASLRFLSDEGVTVQKSLRVEDLTEGAKRTLQVDKGISFYFSSLQA | not soluble |
| VFNSDAPLETTIKGMKTVMLGYDCRMSQQSPAYLERIVKDVKKYKKEDTLVIVNMHWGVEYRETPTNYQTQFGHAILDAGADIIMGAHPHRLESIEKYKDKYIVYSMGDFAFGADPTLLSRMTSMFQLRFTKEA | not soluble |
| MGSDKIHHHHHHMNTPFMLHQGTSPVILAFPHTGTEVPPAIWDRLDDNGRIFADTDWHIHTLYAGLLENATTVRATFHRYVIDANRDPAGVSLYPGQNTTGLVPETDFDGKPIWKTGAEPNEADIAHRLETFHAPYHAALAAEIERVKSIHGIAILYDCHSIRSHIPFLFEGKLPDFNIGTDMGKTCDPAIEKIAVEVTAAAQGYDSILNGRFKGGWTTRHYGKPQTGVHAIQMELAQSTHLQNEHPPFAYDTGKAERLRTHLKTILTRMEKFALDTK | not soluble |
| SLLEECDFPTVKDIENEFEQLKEKNVRAVARLITMAEEQAKTKEAAVTLDDKLVSLKKLNQPSPPVLGITGTGGAGKSSLTDELVRRFLNEFTDKTVAILSIDPTKQKTGGALLGDRIRMNAIHSPRVFMRSLATRGSRTEISESIRDAIAVVKAAAYDLVIVETSGIGQGDAEITEIADISMYVMTSEYGAPSQLEKIDMIDFADVIAINKFDRKGSEDALRHVRKQYQRSHQRFDEPLEAMPVYGTIASQFNDIGTNTLFAAVIDILNKKCKTSWDTSIETSKEVMKQNIIIPPERTQYLRDIVQTVKQYK | soluble |
| MAHHHHHHMSDDIMNGDTLSEYRKIHKKNYEERIIKENELIEKQKTEELLNEKKKNEEIYRQLQIDKDREYSKQCYYEINNFQNIHERTYNDSDIRENYTQRLINPSAYSYIDNNMTQNLLDGDMGYTFSQRIRRFFLNK | not soluble |
| MQSLNVNGTLMTYSESGDPHAPTLFLLSGWCQDHRLFKNLAPLLARDFHVICPDWRGHDAKQTDSGDFDSQTLAQDLLAFIDAKGIRDFQMVSTSHGCWVNIDVCEQLGAARLPKTIIIDWLLQPHPGFWQQLAEGQHPTEYVAGRQSFFDEWAETTDNADVLNHLRNEMPWFHGEMWQRACREIEANYRTWGSPLDRMDSLPQKPEICHIYSQPLSQDYRQLQLEFAAGHSWFHPRHIPGRTHFPSLENPVAVAQAIREFLQA | soluble |
| MGSDKIHHHHHHMALEVVLWDFDGVIFDSMHLKNEGFRALFQKHGNKNQESLKQFEVYHYQSGGISRNEKIQYFYNEILKTPIAQEEVDALALEFGTIIEQKLFDREHLNSEVMAFIDKHYKNHVFHIASAALHSELQVLCEFLGIIKYFKSVEGSPPNKPKIIANIIQKYAYNPGRMLMIGDSVNDYESAQANEVAFLGYNSKVLKNLVGQNGYQGKYLESFKGFDLQNFIKE | not soluble |
| MSKKKGLSAEEKRTRMMEIFSETKDVFQLKDLEKIAPKEKGITAMSVKEVLQSLVDDGMVDCERIGTSNYYWAFPSKALHARKHKLEVLESQLSEGSQKHASLQKSIEKAKIGRCETEERTRLAKELSSLRDQREQLKAEVEKYKDCDPQVVEEIRQANKVAKEAANRWTDNIFAIKSWAKRKFGFEENKIDRTFGIPEDFDYID | soluble |
| MAHHHHHHMAPQFYLGLQMSAIIAAIPDITRAHSAVEVSEMTDLLRAGVTPYARMLDDEDFNEEFVFGMYGMALDSWQRASYEEMTKKYHLALTAIHEAINPPFKLEHFQRITRLVLARAEHVPPADYYSGHLFLRRLRRRWRRLRKIPEPAQVALVPYVDLVNHSNRPNCTIRIGPSSVLSGESAITLFTLRDVLPGQELCRHYNFALNRASALFRYGFLPFDLISIVEHDAVDEHVMKSRDMFRAVSEEQLEHQRREAEEVARLEKLFQDAKQSHGGSGAAASTPPGRQPNPSLSDRVSRREE | not soluble |
| MGSDKIHHHHHHKVEDLVQIATALEVDTIVLNDELSPSQLTNLEKETNLHFIDRTGLILEIFANRAHSREAKLQVELAKLQYQLPRLRTSSTQRLDQQTAGNTGGGFTNRGSGETKLELNRRTIRNKINHINKELKEMTTSSDIQRKQRDKKDIPSVALVGYTNTGKSTTMNGLVRMYGRNEDKQVFEKDMLFATLDTSVRKLTFPDQKELVLSDTVGFVSHLPHQLVKAFRSTLAEAAKADLLVQIVDISDPHYREMMQTTEDTLNEIGVTDIPMIYAFNKADLAGVSYPTLDGNELTYSAKQLQSLEMVTALIKKQVFKNYVEAKFLIPFNEGQVVDFLNGNADVKKTDYTEEGTEITAELKEKDYQRLARYVIQ | not soluble |
| MTLTSDDLRQIAALTLAHYDDNAVSFEVGTRDHDVSQNIAALLRHIQGDPPYAILDFGCGPGRDLKTFAALGHAAVGLDGAAHFVAMAHQATGCEVWQQDFLRLALPAGRFDGIFANASLFHVPTQELPRVLGELRDTLKPGGVLFCSNPRGGNEEGWSRGRYGVWHDWESWRALLEAAGFQALEHYYRPAGLPREQQQWLASVWRRLEHHHHHH | soluble |
